Results reported in US20200181261A1 (Bayer, published 2020).
Residue numbers refer to the chain shown, from its start.

B1: TPP-3323 (antibody, human IgG2, kappa, V domains shown)
VH: QVTLKESGPGILQPSQTLSLTCSFSGFSLTTYGIGVGWIRQPSGKGLEWLAHIWWNDNKYYNTALKSRLTISKDTSNNQVFLKIASVDTADTATYYCARISLPYFDYWGQGTTLTVSS
VL: DIVMTQSQKFMSTSVGDRVSITCKASQNVGTAVAWYQQKPGQSPKLLIYSASNRYTGVPDRFTGSGSGTDFTLTISNMQSEDLADYFCQQYNNYPLTFGAGTKLELKR
notes: human IgG2 chimera; also called TPP-3187X1-hIgG2; hIgG2 chimera of TPP-3187
B2: TPP-3308 (antibody, human IgG2, kappa, V domains shown)
VH: B1 VH with T30S, G46D
VL: B1 VL with N92S, N93S
notes: human IgG2 chimera; also called TPP-2971X1-hIgG2Kappa; hIgG2 chimera of TPP-2971

Columns and labels:
[1] = molecular target: T1, Macaca fascicularis (cynomolgus) CEACAM6, full-length, on transfected HeLa cells (Macaca fascicularis, GPI anchor at the C-terminus on the cell surface, not carried by the letters); test: FACS, transfected HeLa cells
T1 construct: also called TPP-4189; HeLa Cynomolgus CEACAM6
T1 chain: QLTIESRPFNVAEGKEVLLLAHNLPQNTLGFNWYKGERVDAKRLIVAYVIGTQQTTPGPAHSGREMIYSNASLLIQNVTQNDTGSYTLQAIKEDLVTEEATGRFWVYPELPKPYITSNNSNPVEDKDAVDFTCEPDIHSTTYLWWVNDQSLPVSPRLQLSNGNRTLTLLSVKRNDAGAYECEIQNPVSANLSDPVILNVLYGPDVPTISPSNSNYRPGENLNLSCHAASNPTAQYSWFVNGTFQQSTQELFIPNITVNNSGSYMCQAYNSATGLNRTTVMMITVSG
Description: (§1) For FACS experiments HeLa wild type cells were cultured in RPMI-1640, 10% FCS, while CEACAM-receptor transfected HeLa cells received in addition 0.5% Gentamycin (stock 10 mg/ml, Fa. PAA) and 200 μg/ml Hygromycin B (stock 50 mg/ml, Invitrogen). Cells were washed 3 times with PBS w/o Ca²⁺/Mg²⁺ and were detached from the culture plate non-enzymatically with EDTA dissociation buffer (Gibco). Cells were washed in cold FACS buffer (PBS w/o Ca²⁺/Mg²⁺ and heat-inactivated 3% FCS) and were counted using a countess machine (Invitrogen). 10⁵ cells per well were plated and incubated with the respective primary antibody (5 μg/ml) for 1 h at 4° C. on a plate shaker. […] After 2 times washing the cells were resuspended in 100 μl FACS buffer and were analysed on a FACS Canto II machine (Beckton Dickinson) or a FACS Array (Beckton Dickinson).
(§2) For EC₅₀ analysis, the primary antibodies were used at increasing concentrations in a range from 0.1 nM to 100 nM. Half maximal binding values (EC₅₀) were determined by plotting the median fluorescence intensity signal against the concentration (logarithmic scale). Curve fitting of data was performed using the Graph Pad prism analysis software.

[2] = molecular target: T2, human CEACAM3, full-length, on transfected HeLa cells (human, UniProt P40198 35-252); test: FACS, transfected HeLa cells
T2 construct: also called TPP-4187; HeLa human CEACAM3
T2 sequence: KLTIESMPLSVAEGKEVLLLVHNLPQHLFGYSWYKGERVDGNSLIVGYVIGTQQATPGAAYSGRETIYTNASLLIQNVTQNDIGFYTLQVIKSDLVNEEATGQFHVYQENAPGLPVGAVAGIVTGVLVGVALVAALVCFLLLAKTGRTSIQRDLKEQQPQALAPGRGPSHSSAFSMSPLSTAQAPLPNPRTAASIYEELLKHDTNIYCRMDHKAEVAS
Description: as §1, §2

[3] = molecular target: T3, human CEACAM8, full-length, on transfected HeLa cells (human, UniProt P31997 35-320); test: FACS, transfected HeLa cells
T3 construct: also called TPP-4190; HeLa human CEACAM8
T3 sequence: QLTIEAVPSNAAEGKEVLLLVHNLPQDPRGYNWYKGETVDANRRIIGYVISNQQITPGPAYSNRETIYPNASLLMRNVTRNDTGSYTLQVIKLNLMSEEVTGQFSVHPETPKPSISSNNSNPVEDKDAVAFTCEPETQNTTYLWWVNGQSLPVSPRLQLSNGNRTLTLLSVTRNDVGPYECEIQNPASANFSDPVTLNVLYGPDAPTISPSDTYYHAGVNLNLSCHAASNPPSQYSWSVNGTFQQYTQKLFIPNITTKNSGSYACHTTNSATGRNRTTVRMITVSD
Description: as §1, §2

[4] = molecular target: T4, Human CEACAM6-Domain 1-His (expressed in E. coli), wild-type (human); test: SPR, antibody captured, antigen as analyte
T4 construct: entry includes the His tag; also called hDOM1
T4 chain: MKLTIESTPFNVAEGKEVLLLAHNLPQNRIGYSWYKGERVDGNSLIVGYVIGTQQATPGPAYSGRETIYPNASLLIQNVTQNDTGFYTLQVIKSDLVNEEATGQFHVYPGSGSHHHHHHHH
Description: (§3) Surface plasmon resonance (SPR) experiments for quantitative binding analyses were performed either using a Biacore T100, Biacore T200 or a Biacore 4000 instrument (GE Healthcare Biacore, Inc.) equipped with Series S Sensor Chips CM5 (GE Healthcare Biacore, Inc.). Binding assays were carried out at 25° C. with assay buffer HBS-EP+(10 mM HEPES pH 7.4, 150 mM NaCl, 3 mM EDTA, 0.05% Surfactant P20). Antibodies were captured with an anti-hIgG capture antibody covalently immobilized to the chip surface via amine coupling chemistry. Reagents for amine coupling (1-ethyl-3-(3-dimethylaminopropyl) carbodiimide hydrochloride (EDC), N-hydroxysuccinimide (NHS), ethanolamine-HCl pH 8.5) were used from the Amine Coupling Kit (GE Healthcare, product code BR-1000-50). Anti-hIgG, anti-mIgG capture antibodies and immobilization buffer (10 mM sodium acetate pH 5.0) were used from the Human Antibody Capture Kit (GE Healthcare, BR-1008-39) and the Mouse Antibody Capture Kit (GE Healthcare, BR-1008-38), respectively. The sensor chip surface was activated with a freshly prepared solution of 0.2 M EDC and 0.05 M NHS passed over the chip surface for 420 s at a flow rate of 10 μl/min, followed by an injection of anti-hIgG or anti-mIgG capture antibody (dissolved to 25 μg/ml in immobilization buffer) for 180 s at a flow rate of […]. Excess of activated groups were blocked with a 1 molar solution of ethanolamine injected at a flow rate of 10 μl/min for 420 s.
(§4) CEACAM antigens were used as analyte to determine KD values. Antibodies were captured for 20 s at a flow rate of 10 μl/min prior to each analyte injection.

[5] = molecular target: T5, Macaca fascicularis CEACAM6-Domain 1-His (expressed in E. coli) (Macaca fascicularis); test: SPR, antibody captured, antigen as analyte
T5 construct: entry includes the His tag; also called TPP-2453; Recombinant single domain 1 of Macaca fascicularis CEACAM6
T5 chain: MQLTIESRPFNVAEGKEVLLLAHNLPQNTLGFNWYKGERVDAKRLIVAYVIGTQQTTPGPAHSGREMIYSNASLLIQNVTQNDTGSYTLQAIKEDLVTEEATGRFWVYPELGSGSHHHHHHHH
Description: as §3, §4

Binder	EC50 [1]	FACS median fluorescence [1]	binding result [2]	binding result [3]	Kd [4]	Kd [5]
B1	0.8 nM	100 to 1000 medianfluorescence	no binding (tested: 5 µg/ml)	no binding (tested: 5 µg/ml)	9 nM	6.9 nM
B2	0.6 nM	100 to 1000 medianfluorescence	no binding (tested: 5 µg/ml)	no binding (tested: 5 µg/ml)	9.5 nM	5.4 nM
